Assay results from patent US20210340268A1 (GENERAL HOSPITAL, published 2021).

Legend:
[1] = target: T1, epitope containing residues 56-60 of SEQ ID NO: 7 within human TNFR2 (KCSPG) (human); assay: epitope mapping analysis (peptide ELISA)
T1 construct: Motif within CRD1 of TNFR2
T1 peptide: KCSPG

[2] = target: T2, recombinant human TNFR2 (human tumor necrosis factor receptor 2) (human, UniProt P20333 23-257); assay: SPR (Biacore 3000), biotinylated antibody captured on streptavidin, recombinant human TNFR2 in solution
T2 sequence: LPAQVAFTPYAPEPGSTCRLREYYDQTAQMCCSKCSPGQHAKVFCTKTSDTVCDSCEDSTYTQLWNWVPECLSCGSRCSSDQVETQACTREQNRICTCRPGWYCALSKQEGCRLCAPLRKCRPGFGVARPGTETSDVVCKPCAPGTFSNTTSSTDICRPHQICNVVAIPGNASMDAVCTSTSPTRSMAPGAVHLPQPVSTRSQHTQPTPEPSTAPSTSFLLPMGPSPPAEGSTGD
Procedure: The affinities of antagonistic TNFR2 antibodies for recombinant human TNFR2 were measured using BIACORE™ Analysis Services (Precision Antibody). Briefly, the antibody was biotinylated at a 5:1 stoichiometric ratio using biotinyl-LC-LC-[…] (Thermo-Fisher) in PBS. Excess biotinylation reagent was removed by centrifugation chromatography and the biotinylated antibody was captured on 3000 RU of streptavidin surface to a level of 100 RU. […] Analysis of the kinetics of antigen binding was performed at a flow of 60 μL/min with 2 min injections. Antibodies were injected at a concentration of 1 mg/ml to the final capture of 100 RU. The instrument used was BIACORE™ 3000 with the BioCap chip (GE Healthcare). Double reference method was used for analysis. Reference channel contained the identical level of streptavidin.

B1: TNFRAB1 (antibody, V domains shown)
VH: EVQLQESGGGLVKPGGSLKLSCAASGFTFSSYVMSWVRQTPEKRLEWVATISSGGSYTYYPDSVKGRFTISRDNAKNTLYLQMSSLRSEDTAMYYCARQRVDGYSSYWYFDVWGAGTAVTVSS
VL: DIVLTQSPAIMSASPGEKVTITCSASSSVYYMYWFQQKPGTSPKLWIYSTSNLASGVPVRFSGSGSGTSYSLTISRMEAEDAATYYCQQRRNYPYTFGGGTKLEIKR
notes: Murine monoclonal antibody with two heavy and two light chains; also called antagonistic TNFR2 antibody TNFRAB1
binding result [1]: no binding
Kd [2]: ~0.0444 nM
koff [2]: 0.000221 s⁻¹
kon [2]: 4.98e+06 M⁻¹ s⁻¹
